The target in this test is T1, basic region-leucine zipper (B Zip) domain of the transcription factor CCAAT/enhancer binding protein α (C/EBPα) (rat), P05554.
T1 chain: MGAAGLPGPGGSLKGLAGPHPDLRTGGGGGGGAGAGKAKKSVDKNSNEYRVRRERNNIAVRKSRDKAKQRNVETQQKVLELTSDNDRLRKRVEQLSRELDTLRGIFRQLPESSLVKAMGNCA
The test is described as follows: FRET or BRET. The following applies: remark: other sources report otherwise.

B1: basic region-leucine zipper (B Zip) domain of the transcription factor CCAAT/enhancer binding protein α (C/EBPα), P05554 237-358 (domain or fragment)
chain: T1 chain
B1: the donor fluorescence lifetime τm in the presence of the acceptor, mean amounted to 2.78 ns.

These data come from paper PMC4136481.
